Test [1] deals with IL2Rβ/γ receptor (low/medium affinity IL2 receptor) on YT/STAT5-Luc cells with IL2Rα knocked out (human) (UniProt P14784). Kind of test: cell-based or functional assay.
For test [2], the target named is IL2Rα/β/γ receptor (high affinity IL2 receptor) on YT/STAT5-Luc cells expressing endogenous or over-expressed human IL2Rα (human) (UniProt P01589). In words: cell-based or functional assay.
The target in test [3] is human PD1 (amino acids M1-L288 of NP_005009.2 with a 2Q=>E mutation) stably expressed on engineered reporter cells (human) (UniProt Q15116). Kind of test: cell-based or functional assay.
In test [4] the target is IL2Rβ/γ receptor (low/medium affinity IL2 receptor) on YT/STAT5-Luc cells with IL2Rα knocked out (human) (UniProt P14784). Kind of test: cell-based or functional assay. This is another data set of the same source.
The target of test [5] is IL2Rα/β/γ receptor (high affinity IL2 receptor) on YT/STAT5-Luc cells expressing endogenous or over-expressed human IL2Rα (human) (UniProt P01589). Kind of test: cell-based or functional assay. This is another data set of the same source.
For test [6] the target is unchanged. In words: flow cytometry on YT/STAT5-Luc/IL2Ra OE (CD25 OE/PD1 OE) cells, AF647 anti-human IgG secondary, gMFI on a log axis. A general note: Flow cytometry measures light scatter and fluorescence of single cells or particles in a stream.
Test [7] addresses IL2Rβ/γ receptor (low/medium affinity IL2 receptor) on YT/STAT5-Luc cells with IL2Rα knocked out (human) (UniProt P14784). Kind of test: flow cytometry, YT/STAT5-Luc CD25 KO/PD1 OE cells, AF647 anti-human IgG secondary.
Test [8] deals with IL2Rα/β/γ receptor (high affinity IL2 receptor) on YT/STAT5-Luc cells expressing endogenous or over-expressed human IL2Rα (human) (UniProt P01589). Kind of test: flow cytometry, YT/STAT5-Luc CD25 OE/PD1 OE cells, AF647 anti-human IgG secondary.

Where two headings read alike, the source gives them in different places.

As for “Isotype control (IL2 reporter assay, Tables 8 and 9) (antibody)”, in test [1], the Fold induction, STAT5-Luc IL2 reporter assay, YT/Stat5-Luc/IL2Rα KO was 1.12 fold and the Fold induction, STAT5-Luc IL2 reporter assay, YT/Stat5-Luc/IL2Rα KO/hPD1 was determined as 1.06 fold. Further, in test [2], the Fold induction, STAT5-Luc IL2 reporter assay, YT/Stat5-Luc worked out at 1.07 fold; the Fold induction, STAT5-Luc IL2 reporter assay, YT/Stat5-Luc/hIL2Rα worked out at 1.07 fold; the Fold induction, STAT5-Luc IL2 reporter assay, YT/Stat5-Luc/hIL2Rα/hPD1 was 1 fold; the Fold induction, STAT5-Luc IL2 reporter assay, YT/Stat5-Luc/hPD1 stood at 1.08 fold.

With Isotype-IL2-IL2Ra, in test [1], the Max Fold induction, STAT5-Luc IL2 reporter assay, CD25 KO/PD1 OE amounted to 1.25 fold. In addition, in test [2], the EC50 (M), STAT5-Luc IL2 reporter assay, CD25 OE/PD1 OE worked out at 1.41e-09 M and the Max Fold induction, STAT5-Luc IL2 reporter assay, CD25 OE/PD1 OE is 7.78 fold.

In test [3], REGN10597 registered an EC50 (M), AP1-Luc PD1 antagonistic assay of 1.26e-08 M; an EC50, PD1 competition STAT5-Luc assay, YT/STAT5-Luc/IL2Rα KO/hPD1, no antibody ('-') of 128 pM; an EC50, PD1 competition STAT5-Luc assay, YT/STAT5-Luc/IL2Rα KO/hPD1, with Comp 1 of 306 pM; an EC50, PD1 competition STAT5-Luc assay, YT/STAT5-Luc/IL2Rα KO/hPD1, with Comp 2 of 281 pM. In test [3], this substance came in with an EC50, PD1 competition STAT5-Luc assay, YT/STAT5-Luc/IL2Rα KO/hPD1, with REGN2810 of 222 pM; an EC50, PD1 competition STAT5-Luc assay, YT/STAT5-Luc/IL2Rα KO/hPD1, with isotype control of 132 pM; an EC50, PD1 competition STAT5-Luc assay, YT/STAT5-Luc/hIL2Rα/hPD1, no antibody ('-') of 54.5 pM; an EC50, PD1 competition STAT5-Luc assay, YT/STAT5-Luc/hIL2Rα/hPD1, with Comp 1 of 76.5 pM. In test [3], this substance had an EC50, PD1 competition STAT5-Luc assay, YT/STAT5-Luc/hIL2Rα/hPD1, with Comp 2 of 80.5 pM; an EC50, PD1 competition STAT5-Luc assay, YT/STAT5-Luc/hIL2Rα/hPD1, with REGN2810 of 117 pM; an EC50, PD1 competition STAT5-Luc assay, YT/STAT5-Luc/hIL2Rα/hPD1, with isotype control of 70.9 pM; a Fold induction, AP1-Luc PD1 antagonistic assay of 3.04 fold. Further, in test [1], the EC50 (M), STAT5-Luc IL2 reporter assay, CD25 KO/PD1 OE came to 5.78e-11 M; the EC50, STAT5-Luc IL2 reporter assay, YT/Stat5-Luc/IL2Rα KO/hPD1 is 191 pM; the Fold induction, STAT5-Luc IL2 reporter assay, YT/Stat5-Luc/IL2Rα KO was 2.85 fold; the Fold induction, STAT5-Luc IL2 reporter assay, YT/Stat5-Luc/IL2Rα KO/hPD1 was determined as 3.54 fold. In test [1], this substance had a Max Fold induction, STAT5-Luc IL2 reporter assay, CD25 KO/PD1 OE of 5.72 fold. Further, in test [2], the EC50 (M), STAT5-Luc IL2 reporter assay, CD25 OE/PD1 OE came out at 3.3e-11 M; the EC50, STAT5-Luc IL2 reporter assay, YT/Stat5-Luc/hIL2Rα was 848 pM; the EC50, STAT5-Luc IL2 reporter assay, YT/Stat5-Luc/hIL2Rα/hPD1 was found to be 35.3 pM; the EC50, STAT5-Luc IL2 reporter assay, YT/Stat5-Luc/hPD1 turned out to be 175 pM. In addition, in test [2], the Fold induction, STAT5-Luc IL2 reporter assay, YT/Stat5-Luc is 3.29 fold; the Fold induction, STAT5-Luc IL2 reporter assay, YT/Stat5-Luc/hIL2Rα amounted to 5.19 fold; the Fold induction, STAT5-Luc IL2 reporter assay, YT/Stat5-Luc/hIL2Rα/hPD1 was 2.88 fold; the Fold induction, STAT5-Luc IL2 reporter assay, YT/Stat5-Luc/hPD1 was found to be 6.39 fold. The same substance registered a Max Fold induction, STAT5-Luc IL2 reporter assay, CD25 OE/PD1 OE in test [2] of 7.36 fold. Also, in test [4], the EC50 (M), STAT5-Luc IL2 reporter assay, CD25 KO/PD1 OE worked out at 8.38e-11 M and the Max Fold induction, STAT5-Luc IL2 reporter assay, CD25 KO/PD1 OE came to 4.36 fold. Moreover, in test [5], the EC50 (M), STAT5-Luc IL2 reporter assay, CD25 OE/PD1 OE worked out at 3.71e-11 M and the Max Fold induction, STAT5-Luc IL2 reporter assay, CD25 OE/PD1 OE stood at 5.1 fold.

Substance Isotype control 1 (antibody) came in with a Fold induction, AP1-Luc PD1 antagonistic assay in test [3] of 1.13 fold.

A word on the EC50 (read off the curve): it is the concentration giving half of the maximal effect. Higher therefore signals weaker potency. REGN9904 (non-targeted IL2Rα-IL2) gave a Fold induction, AP1-Luc PD1 antagonistic assay in test [3] of 1.08 fold. In addition, in test [1], the Fold induction, STAT5-Luc IL2 reporter assay, YT/Stat5-Luc/IL2Rα KO was found to be 2.62 fold and the Fold induction, STAT5-Luc IL2 reporter assay, YT/Stat5-Luc/IL2Rα KO/hPD1 amounted to 2.59 fold. In test [2], this substance gave an EC50, PD1 competition STAT5-Luc assay, YT/STAT5-Luc/hIL2Rα/hPD1, no antibody ('-') of 703 pM; an EC50, PD1 competition STAT5-Luc assay, YT/STAT5-Luc/hIL2Rα/hPD1, with Comp 1 of 918 pM; an EC50, PD1 competition STAT5-Luc assay, YT/STAT5-Luc/hIL2Rα/hPD1, with Comp 2 of 938 pM; an EC50, PD1 competition STAT5-Luc assay, YT/STAT5-Luc/hIL2Rα/hPD1, with REGN2810 of 651 pM. Moreover, in test [2], the EC50, PD1 competition STAT5-Luc assay, YT/STAT5-Luc/hIL2Rα/hPD1, with isotype control is 791 pM; the EC50, STAT5-Luc IL2 reporter assay, YT/Stat5-Luc/hIL2Rα is 1630 pM; the EC50, STAT5-Luc IL2 reporter assay, YT/Stat5-Luc/hIL2Rα/hPD1 amounted to 971 pM; the Fold induction, STAT5-Luc IL2 reporter assay, YT/Stat5-Luc came out at 3.21 fold. In test [2], this substance registered a Fold induction, STAT5-Luc IL2 reporter assay, YT/Stat5-Luc/hIL2Rα of 4.87 fold; a Fold induction, STAT5-Luc IL2 reporter assay, YT/Stat5-Luc/hIL2Rα/hPD1 of 2.77 fold; a Fold induction, STAT5-Luc IL2 reporter assay, YT/Stat5-Luc/hPD1 of 4.52 fold. For the same substance, the Max Fold induction, STAT5-Luc IL2 reporter assay, CD25 KO/PD1 OE in test [4] amounted to 3.24 fold. In test [5], this substance came in with an EC50 (M), STAT5-Luc IL2 reporter assay, CD25 OE/PD1 OE of 7.69e-10 M and a Max Fold induction, STAT5-Luc IL2 reporter assay, CD25 OE/PD1 OE of 4.57 fold. The EC50 (read off the curve) in test [6] was 10 nM. For the same substance, in test [7], the Fold induction (highest gMFI relative to gMFI without antibody) stood at 1.7 fold and the Max gMFI stood at 3990 gMFI. In test [8], this substance showed a Fold induction (highest gMFI relative to gMFI without antibody) of 33.1 fold and a Max gMFI of 77600 gMFI.

Regarding REGN9903 (isotype-IL2Rα-IL2 control), the Max Fold induction, STAT5-Luc IL2 reporter assay, CD25 KO/PD1 OE in test [1] came out at 4.37 fold. Besides, in test [2], the EC50 (M), STAT5-Luc IL2 reporter assay, CD25 OE/PD1 OE came to 3.31e-10 M and the Max Fold induction, STAT5-Luc IL2 reporter assay, CD25 OE/PD1 OE was found to be 7 fold.

As for Isotype control 2 (antibody), the Fold induction, AP1-Luc PD1 antagonistic assay in test [3] amounted to 1.2 fold.

With IL2-Fc (Fc fusion), in test [1], the EC50, STAT5-Luc IL2 reporter assay, YT/Stat5-Luc/IL2Rα KO worked out at 1.33 nM; the EC50, STAT5-Luc IL2 reporter assay, YT/Stat5-Luc/IL2Rα KO/hPD1 amounted to 442 pM; the Fold induction, STAT5-Luc IL2 reporter assay, YT/Stat5-Luc/IL2Rα KO worked out at 5.4 fold; the Fold induction, STAT5-Luc IL2 reporter assay, YT/Stat5-Luc/IL2Rα KO/hPD1 came out at 3.87 fold. Also, in test [2], the EC50, STAT5-Luc IL2 reporter assay, YT/Stat5-Luc was 402 pM; the EC50, STAT5-Luc IL2 reporter assay, YT/Stat5-Luc/hIL2Rα came to 24.1 pM; the EC50, STAT5-Luc IL2 reporter assay, YT/Stat5-Luc/hIL2Rα/hPD1 amounted to 23.2 pM; the EC50, STAT5-Luc IL2 reporter assay, YT/Stat5-Luc/hPD1 was 392 pM. In test [2], this substance had a Fold induction, STAT5-Luc IL2 reporter assay, YT/Stat5-Luc of 4.96 fold; a Fold induction, STAT5-Luc IL2 reporter assay, YT/Stat5-Luc/hIL2Rα of 5.49 fold; a Fold induction, STAT5-Luc IL2 reporter assay, YT/Stat5-Luc/hIL2Rα/hPD1 of 3.06 fold; a Fold induction, STAT5-Luc IL2 reporter assay, YT/Stat5-Luc/hPD1 of 7.97 fold.

The record behind these values is patent US20220402989A1.
